From patent publication US20200087373A1 (UNIVERSITY OF COPENHAGEN, published 2020)
Ends that are not written are not given here. * marks the point of attachment. Stearoyl = CCCCCCCCCCCCCCCCCC(=O)*; Palmitoyl = CCCCCCCCCCCCCCCC(=O)*; Myristoyl = CCCCCCCCCCCCCC(=O)*; Lauroyl = CCCCCCCCCCCC(=O)*; Dodecyl = CCCCCCCCCCCC*

Biological target: T1, human GIP receptor (human, UniProt P48546 22-466)
T1 sequence (looked up): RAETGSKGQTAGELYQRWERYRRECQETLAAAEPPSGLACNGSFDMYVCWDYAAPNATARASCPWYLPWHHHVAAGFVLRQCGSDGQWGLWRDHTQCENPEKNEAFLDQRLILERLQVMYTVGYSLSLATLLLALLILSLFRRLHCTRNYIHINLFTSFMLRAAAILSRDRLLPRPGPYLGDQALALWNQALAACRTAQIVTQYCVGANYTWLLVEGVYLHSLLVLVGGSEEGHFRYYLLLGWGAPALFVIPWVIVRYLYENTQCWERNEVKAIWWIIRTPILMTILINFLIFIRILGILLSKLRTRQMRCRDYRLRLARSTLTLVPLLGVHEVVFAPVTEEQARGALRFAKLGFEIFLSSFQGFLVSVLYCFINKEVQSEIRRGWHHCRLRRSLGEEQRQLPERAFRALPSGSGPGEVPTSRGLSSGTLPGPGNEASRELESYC
Experiment: cell-based or functional assay

Binder	cAMP agonism, EC50 (log)	cAMP agonism, Emax	cAMP agonism, nM (EC50)	cAMP antagonism, log (IC50)	cAMP antagonism, nM (IC50)
EGTFISDYSIAMDK(Palmitoyl)IHQQDFVNWLLAQK-NH2 [AT105 [hGIP(3-30)NH2-C16/16]]	-5.9 log M	34%	1140 nM	-7.6 log M	24 nM
EGTFISDYSIAMDK(Stearoyl)IHQQDFVNWLLAQK-NH2 [AT114 [hGIP(3-30)NH2-C18/16]]	-5.5 log M	39%	2960 nM	-7.2 log M	46 nM
EGTFISDYSIAMDKIHQQDFVNWLLAQK(Palmitoyl)-NH2 [AT106 [hGIP(3-30)NH2-C16/30]]	-6.4 log M	64%	390 nM		
EGTFISDYSIAMEKIAQQDFVNWLLAQK(Dodecyl)-NH2 [AT130 [hGIP(3-30)NH2[D15E; H18A]-C12/30]]	-5.1 log M	49%	8690 nM		
EGTFISDYSIAMDKIHQQDFVNWLLAQK(Myristoyl)-NH2 [AT112 [hGIP(3-30)NH2-C14/30]]	-5.4 log M	29%	3950 nM		
Stearoyl-EGTFISDYSIAMDKIHQQDFVNWLLAQK-NH2 [AT113 [hGIP(3-30)NH2-C18/3]]	-8 log M	77%	9.9 nM		
EGTFISDYSIAMEK(Palmitoyl)IAQQDFVNWLLAQK-NH2 (N-terminus assumed; SMILES CCCCCCCCCCCCCCCC(=O)NCCCC[C@H](NC(=O)[C@H](CCC(=O)O)NC(=O)[C@H](CCSC)NC(=O)[C@H](C)NC(=O)[C@@H](NC(=O)[C@H](CO)NC(=O)[C@H](Cc1ccc(O)cc1)NC(=O)[C@H](CC(=O)O)NC(=O)[C@H](CO)NC(=O)[C@@H](NC(=O)[C@H](Cc1ccccc1)NC(=O)[C@@H](NC(=O)CNC(=O)[C@@H](N)CCC(=O)O)[C@@H](C)O)[C@@H](C)CC)[C@@H](C)CC)C(=O)N[C@H](C(=O)N[C@@H](C)C(=O)N[C@@H](CCC(N)=O)C(=O)N[C@@H](CCC(N)=O)C(=O)N[C@@H](CC(=O)O)C(=O)N[C@@H](Cc1ccccc1)C(=O)N[C@H](C(=O)N[C@@H](CC(N)=O)C(=O)N[C@@H](Cc1c[nH]c2ccccc12)C(=O)N[C@@H](CC(C)C)C(=O)N[C@@H](CC(C)C)C(=O)N[C@@H](C)C(=O)N[C@@H](CCC(N)=O)C(=O)N[C@@H](CCCCN)C(N)=O)C(C)C)[C@@H](C)CC) [AT131 [hGIP(3-30)NH2[D15E; H18A]-C16/16]]	-4.9 log M	35%	11800 nM	-7.4 log M	65 nM
EGTFISDYSIALDKIK(Palmitoyl)QQDFVNWLLAQK-NH2 (N-terminus assumed; SMILES CCCCCCCCCCCCCCCC(=O)NCCCC[C@H](NC(=O)[C@@H](NC(=O)[C@H](CCCCN)NC(=O)[C@H](CC(=O)O)NC(=O)[C@H](CC(C)C)NC(=O)[C@H](C)NC(=O)[C@@H](NC(=O)[C@H](CO)NC(=O)[C@H](Cc1ccc(O)cc1)NC(=O)[C@H](CC(=O)O)NC(=O)[C@H](CO)NC(=O)[C@@H](NC(=O)[C@H](Cc1ccccc1)NC(=O)[C@@H](NC(=O)CNC(=O)[C@@H](N)CCC(=O)O)[C@@H](C)O)[C@@H](C)CC)[C@@H](C)CC)[C@@H](C)CC)C(=O)N[C@@H](CCC(N)=O)C(=O)N[C@@H](CCC(N)=O)C(=O)N[C@@H](CC(=O)O)C(=O)N[C@@H](Cc1ccccc1)C(=O)N[C@H](C(=O)N[C@@H](CC(N)=O)C(=O)N[C@@H](Cc1c[nH]c2ccccc12)C(=O)N[C@@H](CC(C)C)C(=O)N[C@@H](CC(C)C)C(=O)N[C@@H](C)C(=O)N[C@@H](CCC(N)=O)C(=O)N[C@@H](CCCCN)C(N)=O)C(C)C) [AT143 [hGIP(3-30)NH2[M14L; H18K]-C16/18]]	-6.3 log M	40%	521 nM	-7.8 log M	15.1 nM
EGTFISDYSIAMDKIHQQDFVNWLLAQK(Stearoyl)-NH2 [AT115 [hGIP(3-30)NH2-C18/30]]	-6.9 log M		134 nM		
EGTFISDYSIAMDKIK(Lauroyl)QQDFVNWLLAQK-NH2 (N-terminus assumed; SMILES CCCCCCCCCCCC(=O)NCCCC[C@H](NC(=O)[C@@H](NC(=O)[C@H](CCCCN)NC(=O)[C@H](CC(=O)O)NC(=O)[C@H](CCSC)NC(=O)[C@H](C)NC(=O)[C@@H](NC(=O)[C@H](CO)NC(=O)[C@H](Cc1ccc(O)cc1)NC(=O)[C@H](CC(=O)O)NC(=O)[C@H](CO)NC(=O)[C@@H](NC(=O)[C@H](Cc1ccccc1)NC(=O)[C@@H](NC(=O)CNC(=O)[C@@H](N)CCC(=O)O)[C@@H](C)O)[C@@H](C)CC)[C@@H](C)CC)[C@@H](C)CC)C(=O)N[C@@H](CCC(N)=O)C(=O)N[C@@H](CCC(N)=O)C(=O)N[C@@H](CC(=O)O)C(=O)N[C@@H](Cc1ccccc1)C(=O)N[C@H](C(=O)N[C@@H](CC(N)=O)C(=O)N[C@@H](Cc1c[nH]c2ccccc12)C(=O)N[C@@H](CC(C)C)C(=O)N[C@@H](CC(C)C)C(=O)N[C@@H](C)C(=O)N[C@@H](CCC(N)=O)C(=O)N[C@@H](CCCCN)C(N)=O)C(C)C) [AT116 [hGIP(3-30)NH2-C12/18]]		0%		-7.9 log M	12 nM
EGTFISDYSIAMDRIK(Palmitoyl)QQDFVNWLLAQR-NH2 (N-terminus assumed; SMILES CCCCCCCCCCCCCCCC(=O)NCCCC[C@H](NC(=O)[C@@H](NC(=O)[C@H](CCCNC(=N)N)NC(=O)[C@H](CC(=O)O)NC(=O)[C@H](CCSC)NC(=O)[C@H](C)NC(=O)[C@@H](NC(=O)[C@H](CO)NC(=O)[C@H](Cc1ccc(O)cc1)NC(=O)[C@H](CC(=O)O)NC(=O)[C@H](CO)NC(=O)[C@@H](NC(=O)[C@H](Cc1ccccc1)NC(=O)[C@@H](NC(=O)CNC(=O)[C@@H](N)CCC(=O)O)[C@@H](C)O)[C@@H](C)CC)[C@@H](C)CC)[C@@H](C)CC)C(=O)N[C@@H](CCC(N)=O)C(=O)N[C@@H](CCC(N)=O)C(=O)N[C@@H](CC(=O)O)C(=O)N[C@@H](Cc1ccccc1)C(=O)N[C@H](C(=O)N[C@@H](CC(N)=O)C(=O)N[C@@H](Cc1c[nH]c2ccccc12)C(=O)N[C@@H](CC(C)C)C(=O)N[C@@H](CC(C)C)C(=O)N[C@@H](C)C(=O)N[C@@H](CCC(N)=O)C(=O)N[C@@H](CCCNC(=N)N)C(N)=O)C(C)C) [AT144 [hGIP(3-30)NH2[K16R; H18K; K30R]-C16/18]]		0%		-7.3 log M	53.3 nM
EGWFISDYSIAMEK(Palmitoyl)IAQQDFVNWLLAQK-NH2 (N-terminus assumed; SMILES CCCCCCCCCCCCCCCC(=O)NCCCC[C@H](NC(=O)[C@H](CCC(=O)O)NC(=O)[C@H](CCSC)NC(=O)[C@H](C)NC(=O)[C@@H](NC(=O)[C@H](CO)NC(=O)[C@H](Cc1ccc(O)cc1)NC(=O)[C@H](CC(=O)O)NC(=O)[C@H](CO)NC(=O)[C@@H](NC(=O)[C@H](Cc1ccccc1)NC(=O)[C@H](Cc1c[nH]c2ccccc12)NC(=O)CNC(=O)[C@@H](N)CCC(=O)O)[C@@H](C)CC)[C@@H](C)CC)C(=O)N[C@H](C(=O)N[C@@H](C)C(=O)N[C@@H](CCC(N)=O)C(=O)N[C@@H](CCC(N)=O)C(=O)N[C@@H](CC(=O)O)C(=O)N[C@@H](Cc1ccccc1)C(=O)N[C@H](C(=O)N[C@@H](CC(N)=O)C(=O)N[C@@H](Cc1c[nH]c2ccccc12)C(=O)N[C@@H](CC(C)C)C(=O)N[C@@H](CC(C)C)C(=O)N[C@@H](C)C(=O)N[C@@H](CCC(N)=O)C(=O)N[C@@H](CCCCN)C(N)=O)C(C)C)[C@@H](C)CC) [AT107 [hGIP(3-30)NH2[T5W; D15E; H18A]-C16/16]]	-5.9 log M	23%	1300 nM	-7.1 log M	77 nM
EGTFISDYSIAMDKIK(Palmitoyl)QQDFVNWLLAQK-NH2 (N-terminus assumed; SMILES CCCCCCCCCCCCCCCC(=O)NCCCC[C@H](NC(=O)[C@@H](NC(=O)[C@H](CCCCN)NC(=O)[C@H](CC(=O)O)NC(=O)[C@H](CCSC)NC(=O)[C@H](C)NC(=O)[C@@H](NC(=O)[C@H](CO)NC(=O)[C@H](Cc1ccc(O)cc1)NC(=O)[C@H](CC(=O)O)NC(=O)[C@H](CO)NC(=O)[C@@H](NC(=O)[C@H](Cc1ccccc1)NC(=O)[C@@H](NC(=O)CNC(=O)[C@@H](N)CCC(=O)O)[C@@H](C)O)[C@@H](C)CC)[C@@H](C)CC)[C@@H](C)CC)C(=O)N[C@@H](CCC(N)=O)C(=O)N[C@@H](CCC(N)=O)C(=O)N[C@@H](CC(=O)O)C(=O)N[C@@H](Cc1ccccc1)C(=O)N[C@H](C(=O)N[C@@H](CC(N)=O)C(=O)N[C@@H](Cc1c[nH]c2ccccc12)C(=O)N[C@@H](CC(C)C)C(=O)N[C@@H](CC(C)C)C(=O)N[C@@H](C)C(=O)N[C@@H](CCC(N)=O)C(=O)N[C@@H](CCCCN)C(N)=O)C(C)C) [AT117 [hGIP(3-30)NH2[H18K]-C16/18]]		0%		-7.8 log M	15 nM
Myristoyl-EGTFISDYSIAMDKIHQQDFVNWLLAQK-NH2 [AT110 [hGIP(3-30)NH2-C14/3]]	-8.4 log M	64%	3.6 nM		
EGTFISDYSIAMDK(Myristoyl)IHQQDFVNWLLAQK-NH2 [AT111 [hGIP(3-30)NH2-C14/16]]		0%		-7.6 log M	22 nM
